This is an account of results in paper PMC8627827 (Biomacromolecules, 2021).

This series is described as follows: Subcutaneous pharmacokinetics in streptozotocin-induced diabetic rats. Set-up: species or system Male Sprague Dawley rats. To be noted: rat, in vivo, sc, 10 U/kg.

On to “insulin-PEG20k: insulin covalently modified with 20 kDa mPEG via insulin-BCN, long-acting control”, for which the “Time to peak (serum insulin)” value was found to be 7 ± 1 h.
